Reference: patent US20110263679

Test system: T1, purified recombinant His-tagged C12ORF48 protein
T1 sequence: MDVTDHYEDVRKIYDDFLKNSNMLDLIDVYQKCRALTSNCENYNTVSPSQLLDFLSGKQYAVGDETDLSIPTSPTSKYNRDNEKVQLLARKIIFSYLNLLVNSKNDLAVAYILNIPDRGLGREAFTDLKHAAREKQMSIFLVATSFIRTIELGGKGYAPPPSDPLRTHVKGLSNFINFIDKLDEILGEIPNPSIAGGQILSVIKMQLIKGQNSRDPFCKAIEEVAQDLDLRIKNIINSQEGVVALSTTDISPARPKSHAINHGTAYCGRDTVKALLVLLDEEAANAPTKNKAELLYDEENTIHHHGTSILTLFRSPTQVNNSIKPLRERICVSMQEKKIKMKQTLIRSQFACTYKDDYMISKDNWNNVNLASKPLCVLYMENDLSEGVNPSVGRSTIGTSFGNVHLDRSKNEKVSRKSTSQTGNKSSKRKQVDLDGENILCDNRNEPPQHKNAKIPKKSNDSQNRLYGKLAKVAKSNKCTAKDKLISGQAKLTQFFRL

recombinant human PARP1 (Alexis)
PARP1 automodification, incorporation of [32P] NAD+, SDS-PAGE autoradiography: PARP1 automodification was strongly enhanced in the presence of C12ORF48 protein compared with in the absence of C12ORF48 protein
